Results on one molecule are retold here after paper PMC4339892, “Neuropilin 1 is an entry factor that promotes EBV infection of nasopharyngeal epithelial cells” (Nature Communications, 2015).

Series [1] deals with the molecule itself. The series is described as follows: cross-linking; DSS cross-linking of gB-overexpressing cells, western blotting of the natural form of gB^23–431. Background: Immunoblotting shows a protein as a band on a membrane.
In series [2] the target is T1, GST-NRP1^ABC (soluble extracellular ABC domain of NRP1) (human, UniProt O14786-1 30-862).
T1 construct: neuropilin 1 residues 30-862 (extracellular ABC domain), amplified from pMSCV-NRP1, in pGEX-6p-1; also called pGEX-NRP1^ABC; pGEX-GST-NRP1^ABC; source: E. coli Rosetta, purified (Glutathione agarose)
T1 sequence: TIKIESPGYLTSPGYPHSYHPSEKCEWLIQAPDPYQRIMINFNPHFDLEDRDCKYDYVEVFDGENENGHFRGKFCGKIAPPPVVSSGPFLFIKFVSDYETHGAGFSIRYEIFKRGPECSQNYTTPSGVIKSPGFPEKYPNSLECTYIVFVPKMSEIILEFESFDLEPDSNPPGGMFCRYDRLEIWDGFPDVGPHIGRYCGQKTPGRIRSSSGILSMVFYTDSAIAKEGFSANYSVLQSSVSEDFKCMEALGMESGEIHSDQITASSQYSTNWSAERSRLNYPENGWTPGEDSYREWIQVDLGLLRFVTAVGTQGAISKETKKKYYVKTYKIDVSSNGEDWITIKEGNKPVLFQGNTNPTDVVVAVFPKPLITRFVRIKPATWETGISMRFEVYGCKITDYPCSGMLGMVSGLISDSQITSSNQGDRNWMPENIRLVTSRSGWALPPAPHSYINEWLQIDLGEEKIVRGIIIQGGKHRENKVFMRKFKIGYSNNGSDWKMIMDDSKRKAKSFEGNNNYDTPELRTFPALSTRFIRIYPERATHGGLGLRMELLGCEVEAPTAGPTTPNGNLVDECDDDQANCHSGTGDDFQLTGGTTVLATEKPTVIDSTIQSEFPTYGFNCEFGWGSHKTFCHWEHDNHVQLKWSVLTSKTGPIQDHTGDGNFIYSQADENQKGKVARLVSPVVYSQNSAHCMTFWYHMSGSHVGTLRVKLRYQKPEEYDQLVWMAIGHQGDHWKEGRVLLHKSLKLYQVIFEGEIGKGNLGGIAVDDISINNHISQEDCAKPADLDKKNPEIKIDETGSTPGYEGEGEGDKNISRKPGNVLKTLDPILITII
The series is described as follows: ELISA; plates coated with 200 ng purified FLAG-gB^23–431, various concentrations of GST-NRP1 or GST-NRP2 for 2 h at RT, rabbit anti-GST and HRP-conjugated secondary antibody; apparent affinity constant. The following applies: both partners purified.

B1: FLAG-gB^23–431 (EBV glycoprotein B residues 23-431, CendR motif exposed) (domain or fragment)
chain: QTPEQPAPPATTVQPTATRQQTSFPFRVCELSSHGDLFRFSSDIQCPSFGTRENHTEGLLMVFKDNIIPYSFKVRSYTKIVTNILIYNGWYADSVTNRHEEKFSVDSYETDQMDTIYQCYNAVKMTKDGLTRVYVDRDGVNITVNLKPTGGLANGVRRYASQTELYDAPGWLIWTYRTRTTVNCLITDMMAKSNSPFDFFVTTTGQTVEMSPFYDGKNKETFHERADSFHVRTNYKIVDYDNRGTNPQGERRAFLDKGTYTLSWKLENRTAYCPLQHWQTFDSTIATETGKSIHFVTDEGTSSFVTNTTVGIELPDAFKCIEEQVNKTMHEKYEAVQDRYTKGQEAITYFITSGGLLLAWLPLTPRSLATVKNLTELTTPTSSPPSSPSPPAPSAARGSTPAAVLRRRR
notes: Epstein-Barr virus glycoprotein B (gB), residues 23-431, amplified from the gB expression plasmid p2670; ends with the CendR motif 428-431 (furin cleavage site); Secreted into the supernatant; the signal peptide of the vector is not described; also called EBV-gB^23–431; pCEP-his-FLAG-gB^23–431; source: HEK-293FT, transfected, in lysate (co-IP; M2 beads for the pull-down)
In the case of B1, in series [1], the “stoichiometry N” value was 3. Besides, in series [2], the binding result is recorded as “binds”.

One may read the stoichiometry N as the number of molecules, sites or subunits per partner or assembly.
